Reference: patent publication US20050019808A1 (WISCONSIN ALUMNI RESEARCH FOUNDATION, published 2005)

B1: recombinant Mengo 2A protein (other)
chain: SPNPLDVSKTYPTLHILLQFNHRGLEARIFRHGQLWAETHAEVVLRSKTKQISFLSNGSYPSMDATTPLNPWKSTYQAVLRAEPHRVTMDVYHKRIRPFRLPLVQKEWRTCEENVFGLYHVFETHYAGYFSDLLIHDVETNPG
notes: domain: 2A; also called r2A; recombinant 2A
B2: recombinant Mengo 2B protein (other)
chain: PFTFKPRQRPVFQTQGAAVSSMAQTLLPNDLASKAMGSAFTALLDANEDAQKAMKIIKTLSSLSDAWENVKGTLNNPEFWKQLLSRCVQLIAGMTIAVMHPDPLTLLCLGVLTAAEITSQTSLCEEIAAKFKTIFTTPPPRFPVISLFQQQ
notes: domain: 2B; also called recombinant 2B protein

Key:
B23 (nucleophosmin) = biological target: T1, B23 (nucleophosmin) (UniProt P06748 1-294); experiment: mobility shift, 4% native PAGE, Western with Ab-B23; not sensitive to RNaseA
T1 construct: Endogenous protein of HeLa cells; also called protein B23; ribosomal chaperone protein B23
T1 sequence (P06748 whole entry): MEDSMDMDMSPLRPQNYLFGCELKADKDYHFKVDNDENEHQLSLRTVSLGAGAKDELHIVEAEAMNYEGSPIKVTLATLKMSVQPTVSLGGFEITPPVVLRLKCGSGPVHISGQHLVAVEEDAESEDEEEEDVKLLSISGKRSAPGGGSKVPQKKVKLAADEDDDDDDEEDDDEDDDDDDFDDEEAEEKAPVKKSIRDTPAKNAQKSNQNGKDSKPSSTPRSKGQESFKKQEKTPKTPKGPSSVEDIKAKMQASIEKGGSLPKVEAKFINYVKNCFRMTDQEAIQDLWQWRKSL

[1] = biological target: the molecule itself; experiment: SDS-PAGE and Western, self-association (dimer)
[2] = biological target: the molecule itself; experiment: SDS-PAGE and Western, self-association (results not shown)

| Binder | binding result (B23 (nucleophosmin)) | binding result [1] | binding result [2] |
| --- | --- | --- | --- |
| B1 | binds | binds |  |
| B2 |  |  | binds |
